Sequences and labels used below:
B1: Gli3(280-478), wild type [modified: [35S]-methionine labelled; [35S]-methionine labelled] [human] / GST-JNK1 [human] (parent complex)
chain 1: SSPRLSARPSRKRTLSISPLSDHSFDLQTMIRTSPNSLVTILNNSRSSSSASGSYGHLSASAISPALSFTYSSAPVSLHMHQQILSRQQSLGSAFGHSPPLIHPAPTFPTQRPIPGIPTVLNPVQVSSGPSESSQNKPTSESAVSSTGDPMHNKRSKIKPDEDLPSPGARGQQEQPEGTTLVKEEGDKDESKQEPEVIY
chain 2: MSRSKRDNNFYSVEIGDSTFTVLKRYQNLKPIGSGAQGIVCAAYDAILERNVAIKKLSRPFQNQTHAKRAYRELVLMKCVNHKNIIGLLNVFTPQKSLEEFQDVYIVMELMDANLCQVIQMELDHERMSYLLYQMLCGIKHLHSAGIIHRDLKPSNIVVKSDCTLKILDFGLARTAGTSFMMTPYVVTRYYRAPEVILGMGYKENVDLWSVGCIMGEMVCHKILFPGRDYIDQWNKVIEQLGTPCPEFMKKLQPTVRTYVENRPKYAGYSFEKLFPDVLFPADSEHNKLKASQARDLLSKMLVIDASKRISVDEALQHPYINVWYDPSEAEAPPPKIPDKQLDEREHTIEEWKELIYKEVMDLEERTKNGVIRGQPSPLAQVQQ
B2: Gli3(280-478), wild type [modified: [35S]-methionine labelled; [35S]-methionine labelled] [human] / GST-JNK3 [human] (parent complex)
chain 1: B1 chain 1
chain 2: MSLHFLYYCSEPTLDVKIAFCQGFDKQVDVSYIAKHYNMSKSKVDNQFYSVEVGDSTFTVLKRYQNLKPIGSGAQGIVCAAYDAVLDRNVAIKKLSRPFQNQTHAKRAYRELVLMKCVNHKNIISLLNVFTPQKTLEEFQDVYLVMELMDANLCQVIQMELDHERMSYLLYQMLCGIKHLHSAGIIHRDLKPSNIVVKSDCTLKILDFGLARTAGTSFMMTPYVVTRYYRAPEVILGMGYKENVDIWSVGCIMGEMVRHKILFPGRDYIDQWNKVIEQLGTPCPEFMKKLQPTVRNYVENRPKYAGLTFPKLFPDSLFPADSEHNKLKASQARDLLSKMLVIDPAKRISVDDALQHPYINVWYDPAEVEAPPPQIYDKQLDEREHTIEEWKELIYKEVMNSEEKTKNGVVKGQPSPSAQVQQ

Variants of B1 are the subject of one assay. Description: GST pull-down of in vitro translated protein, quantified; 30 µg GST-JNK1; read off a plot.
With chain 1 R11A, chain 1 K12A, chain 1 R13A, chain 1 L15A, chain 1 I17A, the response was ~0.2 % of input (axis unlabelled; 5% input bar = 5).

In another assay the parent is B2. In words: GST pull-down of in vitro translated protein, quantified; 20 µg GST-JNK3; read off a plot.
For chain 1 R11A, chain 1 K12A, chain 1 R13A, chain 1 L15A, chain 1 I17A, the response was ~0.35 % of input (axis unlabelled; 5% input bar = 5).

The values are drawn from article PMC2928751 (2010).
